From paper PMC4132020

Molecular target: Sso7d-IN with an 11 glycine linker (Sulfolobus solfataricus chromosomal protein Sso7d fused to the N-terminus of HIV-1 integrase) (Sulfolobus solfataricus | HIV-1)
Assay: SEC; Superdex 200 PC 3.2/30, 20 mM HEPES pH 7.5, 20% glycerol, 5 mM DTT, 500 mM NaCl; free protein peak of a scaled-up intasome assembly mixture (with U5-25 DNA, CaCl2, 4 µM ZnCl2) after addition of 500 mM NaCl; position relative to protein standards

## Sso7d-IN with an 11 glycine linker (Sulfolobus solfataricus chromosomal protein Sso7d fused to the N-terminus of HIV-1 integrase) (enzyme)
  stoichiometry N: 4
